Reference: patent US12097241B2, “Methods of treating kidney failure, and/or improving or stablizing renal function using modified relaxin polypeptides” (BRISTOL-MYERS SQUIBB COMPANY, priority 2017, dated 2024)
Read-outs that look alike come from different tables or passages of the source. Marks after values point to notes of the source that are not given here.

How the values were obtained:
[1] = Rat renal blood flow studies; assay type: in vivo, Sprague Dawley rats; conditions: anesthetized male Sprague Dawley rats, 1 mg/kg intravenously, renal blood flow recorded for 45 min
Procedure: Male Sprague Dawley rats (˜250-300 g) were anesthetized with sodium pentobarbital (50 mg/kg), the trachea was cannulated with PE-205 tubing to maintain airway patency, and temperature was maintained at 37° C. with a heated surgical plate. A 1.4 F pressure catheter (Millar Inc., Houston, TX) was advanced into the right carotid artery to measure aortic blood pressure. The right jugular vein was cannulated with PE-50 tubing for administration of test articles. The left kidney was exposed by a retroperitoneal incision, and a Doppler flow probe (Model 0.5 VB, Transonic System Inc., Ithaca, NY) was attached to the left renal artery to monitor blood flow. Sodium pentobarbital (15 mg/kg, intraperitoneal) was supplemented after completion of these surgical procedures. Following a 10-15 min equilibration, the relaxin was administered at 1 mg/kg intravenously in a dosing volume of 0.15 to 1.82 mL/kg over 30 seconds via an infusion pump (Harvard Apparatus, Holliston, MA). Blood pressure, heart rate and renal blood flow were continuously recorded for 45 min after relaxin administration using a Millar MPVS Ultra Signal Conditioning unit connected to a desktop computer running LabChart 7-Pro data acquisition software (ADInstruments, Dunedin, New Zealand) (Table 5). Table 5. Rat renal blood flow changes (abbreviations as in Table 3).

[2] = biological target: T1, human RXFP1 receptor (Homo sapiens, UniProt Q9HBX9); assay: Intracellular cAMP accumulation assay; assay type: cell-based; conditions: CHO-K1 cells stably expressing human RXFP1; 10 min at 37° C.; HTRF cAMP; average; read-out: hRXFP1/CHO-K1 cAMP EC50 (nM, avg)
T1 construct: expressed in transfected cells
T1 sequence (Q9HBX9 1-757): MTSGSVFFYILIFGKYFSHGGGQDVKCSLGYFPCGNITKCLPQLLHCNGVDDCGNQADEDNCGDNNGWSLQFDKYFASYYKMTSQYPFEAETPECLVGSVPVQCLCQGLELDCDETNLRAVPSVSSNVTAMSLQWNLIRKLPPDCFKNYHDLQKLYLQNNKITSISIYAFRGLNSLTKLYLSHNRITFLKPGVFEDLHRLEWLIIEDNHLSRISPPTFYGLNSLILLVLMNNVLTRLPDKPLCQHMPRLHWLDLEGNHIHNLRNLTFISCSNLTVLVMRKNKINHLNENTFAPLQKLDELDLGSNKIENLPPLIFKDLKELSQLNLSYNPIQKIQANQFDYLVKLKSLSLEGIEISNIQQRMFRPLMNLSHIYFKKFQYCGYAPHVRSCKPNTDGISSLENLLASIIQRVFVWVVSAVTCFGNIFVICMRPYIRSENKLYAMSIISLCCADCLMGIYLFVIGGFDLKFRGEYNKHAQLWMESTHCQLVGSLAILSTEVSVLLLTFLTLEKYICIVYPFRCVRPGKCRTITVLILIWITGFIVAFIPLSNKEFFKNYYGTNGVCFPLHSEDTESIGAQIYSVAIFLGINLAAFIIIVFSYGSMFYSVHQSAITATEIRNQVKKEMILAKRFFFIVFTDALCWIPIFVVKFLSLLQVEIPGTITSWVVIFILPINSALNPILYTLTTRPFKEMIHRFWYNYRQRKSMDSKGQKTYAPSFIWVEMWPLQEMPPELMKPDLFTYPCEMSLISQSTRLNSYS

[3] = In vivo pharmacokinetic (PK) studies in rats; parameters: species or system Sprague-Dawley rats; conditions: rat; for AUC(0-inf): read-out: Rat PK AUC Total; for level at time molar at 24 h: read-out: Rat PK C24
Outline: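 Male Sprague-Dawley rats (n=3) given a single 1 mg/kg IV or SC dose of relaxin constructs in 20 mM histidine, 750 mM NaCl, pH 6.0; jugular serum sampled to 72 h. Serum relaxin by ELISA; Cmax, AUCinf, C24 and half-life from non-compartmental analysis of individual profiles.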

[4] = male Sprague-Dawley rats, single SC dose 1.0 mg/kg, serum ELISA
[5] = male, Sprague-Dawley, serum, rats, SC dose 0.8 mg/kg

Row | Compound | % change in RBF over baseline [1] | EC50 [2] [nM] | AUC(0-inf) [3, 4] [µM·h] | level at time molar at 24 h [3, 4] [nM] | AUC(0-inf) [3, 5] [µM·h] | level at time molar at 24 h [3, 5] [nM]
1 | CC[C@H](C)[C@@H]1NC(=O)[C@H](C)NC(=O)[C@H]([C@@H](C)CC)NC(=O)[C@H](CCC(N)=O)NC(=O)[C@H](C)NC(=O)[C@H](CCCNC(=N)N)NC(=O)[C@H](C(C)C)NC(=O)[C@H](CC(C)C)NC(=O)[C@H](CCC(=O)O)NC(=O)[C@H](CCCNC(=N)N)NC(=O)CNC(=O)[C@@H](NC(=O)[C@H](CC(C)C)NC(=O)[C@H](CCCCN)NC(=O)[C@@H](NC(=O)[C@@H](NC(=O)[C@H](CCC(=O)O)NC(=O)[C@H](CCC(=O)O)NC(=O)[C@H](CCSC)NC(=O)[C@H](Cc2c[nH]c3ccccc23)NC(=O)[C@H](CO)NC(=O)[C@H](C)N)C(C)C)[C@@H](C)CC)CSSC[C@@H]2NC(=O)[C@@H](NC(=O)[C@H](CCCCN)NC(=O)[C@H](CC(N)=O)NC(=O)[C@H](C)NC(=O)[C@H](CC(C)C)NC(=O)[C@H](C)NC(=O)[C@H](CO)NC(=O)[C@H](Cc3ccc(O)cc3)NC(=O)[C@H](CC(C)C)NC(=O)[C@@H](N)Cc3ccc(/C(C)=N/OCCNC(=O)CC[C@H](NC(=O)CCCCCCCCCCCCC(=O)O)C(=O)O)cc3)CSSC[C@H](NC(=O)CNC(=O)[C@H](C(C)C)NC(=O)[C@H](Cc3c[nH]cn3)NC2=O)C(=O)N[C@@H]([C@@H](C)O)C(=O)N[C@@H](CCCCN)C(=O)N[C@@H](CCCNC(=N)N)C(=O)N[C@@H](CO)C(=O)N[C@@H](CC(C)C)C(=O)N[C@@H](C)C(=O)N[C@@H](CCCNC(=N)N)C(=O)N[C@@H](Cc2ccccc2)C(=O)N[C@H](C(=O)O)CSSC[C@@H](C(=O)NCC(=O)N[C@@H](CCSC)C(=O)N[C@@H](CO)C(=O)N[C@H](C(=O)N[C@@H](Cc2c[nH]c3ccccc23)C(=O)N[C@@H](CO)C(=O)O)[C@@H](C)O)NC1=O [AQ1-Glu-C13-COOH] | +14^b % |  |  |  |  | 
2 | CCCCCCCCCCCCCC(=O)N[C@@H](CCC(=O)NCC(=O)NCC(=O)NCC(=O)N[C@@H](CCC(=O)O)C(=O)N[C@@H](CCC(=O)O)C(=O)N[C@@H](CCC(=O)O)C(=O)NCCON=C(C)c1ccc(C[C@H](N)C(=O)N[C@@H](CC(C)C)C(=O)N[C@@H](Cc2ccc(O)cc2)C(=O)N[C@@H](CO)C(=O)N[C@@H](C)C(=O)N[C@@H](CC(C)C)C(=O)N[C@@H](C)C(=O)N[C@@H](CC(N)=O)C(=O)N[C@@H](CCCCN)C(=O)N[C@H]2CSSC[C@@H]3NC(=O)CNC(=O)[C@H](C(C)C)NC(=O)[C@H](Cc4c[nH]cn4)NC(=O)[C@H](CSSC[C@H](NC(=O)[C@H](CC(C)C)NC(=O)[C@H](CCCCN)NC(=O)[C@@H](NC(=O)[C@@H](NC(=O)[C@H](CCC(=O)O)NC(=O)[C@H](CCC(=O)O)NC(=O)[C@H](CCSC)NC(=O)[C@H](Cc4c[nH]c5ccccc45)NC(=O)[C@H](CO)NC(=O)[C@H](C)N)C(C)C)[C@@H](C)CC)C(=O)NCC(=O)N[C@@H](CCCNC(=N)N)C(=O)N[C@@H](CCC(=O)O)C(=O)N[C@@H](CC(C)C)C(=O)N[C@@H](C(C)C)C(=O)N[C@@H](CCCNC(=N)N)C(=O)N[C@@H](C)C(=O)N[C@@H](CCC(N)=O)C(=O)N[C@@H]([C@@H](C)CC)C(=O)N[C@@H](C)C(=O)N[C@@H]([C@@H](C)CC)C(=O)N[C@H](C(=O)NCC(=O)N[C@@H](CCSC)C(=O)N[C@@H](CO)C(=O)N[C@H](C(=O)N[C@@H](Cc4c[nH]c5ccccc45)C(=O)N[C@@H](CO)C(=O)O)[C@@H](C)O)CSSC[C@@H](C(=O)O)NC(=O)[C@H](Cc4ccccc4)NC(=O)[C@H](CCCNC(=N)N)NC(=O)[C@H](C)NC(=O)[C@H](CC(C)C)NC(=O)[C@H](CO)NC(=O)[C@H](CCCNC(=N)N)NC(=O)[C@H](CCCCN)NC(=O)[C@H]([C@@H](C)O)NC3=O)NC2=O)cc1)C(=O)O [AQ1-EEEGGG-Glu^γ-C13-CH3] |  | 0.38 | 0.274 | 0.4 |  | 
3 | CC[C@H](C)[C@@H]1NC(=O)[C@H](C)NC(=O)[C@H]([C@@H](C)CC)NC(=O)[C@H](CCC(N)=O)NC(=O)[C@H](C)NC(=O)[C@H](CCCNC(=N)N)NC(=O)[C@H](C(C)C)NC(=O)[C@H](CC(C)C)NC(=O)[C@H](CCC(=O)O)NC(=O)[C@H](CCCNC(=N)N)NC(=O)CNC(=O)[C@@H](NC(=O)[C@H](CC(C)C)NC(=O)[C@H](CCCCN)NC(=O)[C@@H](NC(=O)[C@@H](NC(=O)[C@H](CCC(=O)O)NC(=O)[C@H](CCC(=O)O)NC(=O)[C@H](CCSC)NC(=O)[C@H](Cc2c[nH]c3ccccc23)NC(=O)[C@H](CO)NC(=O)[C@H](C)N)C(C)C)[C@@H](C)CC)CSSC[C@@H]2NC(=O)[C@@H](NC(=O)[C@H](CCCCN)NC(=O)[C@H](CC(N)=O)NC(=O)[C@H](C)NC(=O)[C@H](CC(C)C)NC(=O)[C@H](C)NC(=O)[C@H](CO)NC(=O)[C@H](Cc3ccc(O)cc3)NC(=O)[C@H](CC(C)C)NC(=O)[C@@H](N)Cc3ccc(C(C)=NOCCNC(=O)[C@H](CCCNC(=N)N)NC(=O)CNC(=O)CNC(=O)[C@H](CCC(=O)O)NC(=O)[C@H](CCC(=O)O)NC(=O)[C@H](CCCCN)NC(=O)[C@H](CCCCN)NC(=O)[C@H](CCCCN)NC(=O)[C@H](CCC(=O)O)NC(=O)[C@H](CCCCN)NC(=O)[C@H](CCC(=O)O)NC(=O)[C@H](CCCCN)NC(=O)CC[C@H](NC(=O)CCCCCCCCCCCCC(=O)O)C(=O)O)cc3)CSSC[C@H](NC(=O)CNC(=O)[C@H](C(C)C)NC(=O)[C@H](Cc3c[nH]cn3)NC2=O)C(=O)N[C@@H]([C@@H](C)O)C(=O)N[C@@H](CCCCN)C(=O)N[C@@H](CCCNC(=N)N)C(=O)N[C@@H](CO)C(=O)N[C@@H](CC(C)C)C(=O)N[C@@H](C)C(=O)N[C@@H](CCCNC(=N)N)C(=O)N[C@@H](Cc2ccccc2)C(=O)N[C@H](C(=O)O)CSSC[C@@H](C(=O)NCC(=O)N[C@@H](CCSC)C(=O)N[C@@H](CO)C(=O)N[C@H](C(=O)N[C@@H](Cc2c[nH]c3ccccc23)C(=O)N[C@@H](CO)C(=O)O)[C@@H](C)O)NC1=O [AQ1-RGGEEKKKEKEK-Glu^γ-C13-COOH] |  | 0.29 | 0.987 | 0.1 |  | 
4 | CC[C@H](C)[C@@H]1NC(=O)[C@H](C)NC(=O)[C@H]([C@@H](C)CC)NC(=O)[C@H](CCC(N)=O)NC(=O)[C@H](C)NC(=O)[C@H](CCCNC(=N)N)NC(=O)[C@H](C(C)C)NC(=O)[C@H](CC(C)C)NC(=O)[C@H](CCC(=O)O)NC(=O)[C@H](CCCNC(=N)N)NC(=O)CNC(=O)[C@@H](NC(=O)[C@H](CC(C)C)NC(=O)[C@H](CCCCN)NC(=O)[C@@H](NC(=O)[C@@H](NC(=O)[C@H](CCC(=O)O)NC(=O)[C@H](CCC(=O)O)NC(=O)[C@H](CCSC)NC(=O)[C@H](Cc2c[nH]c3ccccc23)NC(=O)[C@H](CO)NC(=O)[C@H](C)N)C(C)C)[C@@H](C)CC)CSSC[C@@H]2NC(=O)[C@@H](NC(=O)[C@H](CCCCN)NC(=O)[C@H](CC(N)=O)NC(=O)[C@H](C)NC(=O)[C@H](CC(C)C)NC(=O)[C@H](C)NC(=O)[C@H](CO)NC(=O)[C@H](Cc3ccc(O)cc3)NC(=O)[C@H](CC(C)C)NC(=O)[C@@H](N)Cc3ccc(C(C)=NOCCNC(=O)CNC(=O)CNC(=O)CNC(=O)CNC(=O)[C@H](CO)NC(=O)CC[C@H](NC(=O)CCCCCCCCCCCCC(=O)O)C(=O)O)cc3)CSSC[C@H](NC(=O)CNC(=O)[C@H](C(C)C)NC(=O)[C@H](Cc3c[nH]cn3)NC2=O)C(=O)N[C@@H]([C@@H](C)O)C(=O)N[C@@H](CCCCN)C(=O)N[C@@H](CCCNC(=N)N)C(=O)N[C@@H](CO)C(=O)N[C@@H](CC(C)C)C(=O)N[C@@H](C)C(=O)N[C@@H](CCCNC(=N)N)C(=O)N[C@@H](Cc2ccccc2)C(=O)N[C@H](C(=O)O)CSSC[C@@H](C(=O)NCC(=O)N[C@@H](CCSC)C(=O)N[C@@H](CO)C(=O)N[C@H](C(=O)N[C@@H](Cc2c[nH]c3ccccc23)C(=O)N[C@@H](CO)C(=O)O)[C@@H](C)O)NC1=O [AQ1-GGGGS-Glu^γ-C13-COOH] |  | 0.14 |  |  | 1.1 | 1.52
